The target in test [1] is T1, human CAIX antigen on A549 cells (human, UniProt Q16790 38-459). Briefly: FACS, A549 cells, 1 µg/ml purified protein (FIG. 27). On the technique in general: In flow cytometry, cells or beads pass a laser one at a time.
The target in test [2] is T1, human CAIX antigen on A549 cells. Briefly: FACS, A549 cells, 1 µg/ml purified protein (FIG. 28).
Test [3] has the same target. Briefly: FACS, A549 cells, 1 µg/ml purified protein (FIG. 26). The protocol: FIG. 26: FACS binding analysis of cross-species specific bispecific single chain construct CAIX HL×SEQ ID NO. 194 to HPB-ALL (human CD3+), cynomolgus PBMC (cynomolgus CD3+), A549 (human CAIX+) and CYNOM-KI (cynomolgus CAIX+) cells, respectively. The FACS staining was performed as described in Example 23. The thick line represents cells incubated with 1 μg/ml purified monomeric protein that were subsequently incubated with the anti-his antibody and the PE labeled detection antibody. The thin histogram line reflects the negative control: cells only incubated with the anti-his antibody and the detection antibody.
In order to test the functionality of the cross-species specific bispecific antibody constructs with regard to binding capability to human and cynomolgus EGFR and CD3, respectively, a FACS analysis was performed. For this purpose the EGFR positive epidermoid carcinoma A431 cells (ATCC, CRL-1555) and CD3 positive human T cell leukemia cell line HPB-ALL (DSMZ, Braunschweig, ACC483) were used to check the binding to human antigens. […] The cells were washed twice in PBS and binding of the construct was detected with an unlabeled murine Penta His antibody (diluted 1:20 in 50 μl PBS with 2% FCS; Qiagen; Order No. 34660). After washing, bound anti His antibodies were detected with an Fc gamma-specific antibody (Dianova) conjugated to phycoerythrin, diluted 1:100 in 50 μl PBS with 2% FCS. […]

For test [4], the target named is T2, human EpCAM antigen on Kato III cells or human EpCAM transfected CHO cells (human, UniProt P16422 24-265).
T2 construct: 137 holds only the extracellular portion; the protein stood whole on cells
T2 sequence: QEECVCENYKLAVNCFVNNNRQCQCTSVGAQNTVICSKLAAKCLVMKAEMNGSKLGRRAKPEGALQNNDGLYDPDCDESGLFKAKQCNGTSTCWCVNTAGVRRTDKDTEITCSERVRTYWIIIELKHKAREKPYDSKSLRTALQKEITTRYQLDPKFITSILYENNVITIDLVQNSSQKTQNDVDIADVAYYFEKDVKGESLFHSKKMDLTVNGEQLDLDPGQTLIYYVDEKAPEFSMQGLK
Description: FACS, Kato III cells or human EpCAM transfected CHO cells, anti-His detection. The protocol: FIG. 3: FACS assay for binding of 5-10LH×SEQ ID NO. 12, 5-10LH×SEQ ID NO. 10, 5-10LH×SEQ ID NO. 16 and 5-10LH×SEQ ID NO. 14 to human Kato III cells expressing EpCAM or human EpCAM transfected CHO cells and to HPB-ALL cells. Cells bound by the respective constructs (depicted as non-filled curves) are shown in comparison to cells incubated only with the detection antibodies (depicted as filled curves). Antigen binding of all bispecific constructs was clearly detectable for the anti human EpCAM specificity as well as for the anti CD3 specificities on the HPB-ALL cell line positive for human CD3.
Binding of the bifunctional constructs to the EpCAM antigen on human Kato III cells expressing EpCAM (ATCC No. HTB-103) or on human EpCAM transfected CHO cells and to the human CD3 antigen on HPB-ALL cells was tested using an FACS assay. For that purpose 2.5×10⁵ cells were incubated with 50 μl of cell culture supernatant containing the construct. The binding of the construct was detected with an anti-His antibody (Penta-His Antibody, BSA free, obtained from Qiagen GmbH, Hilden, FRG) at 2 μg/ml in 50 μl PBS with 2% FCS. […] The samples were measured on a FACSscan (BD biosciences, Heidelberg, FRG). Antigen binding was clearly detectable for the anti human EpCAM specificity as well as for the anti CD3 specificities on the cell line positive for human CD3 (see FIG. 3).

In test [5] the target is T3, cynomolgus EpCAM antigen on transfected CHO cells (cynomolgus, UniProt Q1WER1 24-265 (rhesus entry)).
T3 construct: 48 holds the extracellular portion
T3 sequence: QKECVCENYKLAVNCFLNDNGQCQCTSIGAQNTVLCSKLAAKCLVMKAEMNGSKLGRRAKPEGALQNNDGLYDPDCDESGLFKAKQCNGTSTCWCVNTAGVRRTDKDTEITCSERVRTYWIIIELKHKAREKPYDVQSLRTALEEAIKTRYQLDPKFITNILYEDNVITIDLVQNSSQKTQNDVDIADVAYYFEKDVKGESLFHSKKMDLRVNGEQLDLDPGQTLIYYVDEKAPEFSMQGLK
Briefly: FACS on cynomolgus EpCAM transfected CHO cells against untransfected cells. The protocol:
FIG. 7: FACS assay for the detection of the cynomolgus EpCAM antigen on transfected CHO cells. Supernatants of three different anti human EpCAM hybridomas (M79, 3B10, 2G8) were tested for binding.
To generate a cell line positive for cynomolgus EpCAM, a clone of the aforementioned coding sequence of the cynomolgus EpCAM antigen subcloned into pEFDHFR with a verified nucleotide sequence was transfected into DHFR deficient CHO cells for eukaryotic expression of the construct as described in Kaufmann R. J. (1990) Methods Enzymol. 185, 537-566). Gene amplification of the construct was induced by increasing concentrations of MTX to a final concentration of up to 500nM MTX. The transfected cells were then tested for expression of cynomolgus EpCAM using an FACS assay. For that purpose, a number of 2.5×10⁵ cells was incubated with 50 μl supernatant three different mouse anti human EpCAM hybridomas (M79—Fogler et al., Cancer Res. 48 (1988); p. 6303-8; 3B10—Passlick et al. Int. J. Cancer 87 (2000), p. 548-552; 2G8—Balzar et al., J. Mol. Med. 77 (1999), p. 699-712). […] The samples were measured on a FACSscan (BD biosciences, Heidelberg, FRG). The anti EpCAM antibody 2G8 was recognized as cross-species specific and the expression of cynomolgus EpCAM was confirmed (see FIG. 7).

B1: CAIX HL × SEQ ID NO. 170 (bispecific antibody)
chain: DVKLVESGGGLVKLGGSLKLSCAASGFTFSNYYMSWVRQTPEKRLELVAAINSDGGITYYLDTVKGRFTISRDNAKNTLYLQMSSLKSEDTALFYCARHRSGYFSMDYWGQGTSVTVSSGGGGSGGGGSGGGGSDIVMTQSQRFMSTTVGDRVSITCKASQNVVSAVAWYQQKPGQSPKLLIYSASNRYTGVPDRFTGSGSGTDFTLTISNMQSEDLADFFCQQYSNYPWTFGGGTKLEIKSGGGGSEVQLVESGGGLVQPGGSLKLSCAASGFTFNTYAMNWVRQAPGKGLEWVARIRSKYNNYATYYADSVKDRFTISRDDSKNTAYLQMNNLKTEDTAVYYCVRHGNFGNSYVSWFAYWGQGTLVTVSSGGGGSGGGGSGGGGSQTVVTQEPSLTVSPGGTVTLTCRSSTGAVTTSNYANWVQQKPGQAPRGLIGGTNKRAPGTPARFSGSLLGGKAALTLSGVQPEDEAEYYCALWYSNLWVFGGGTKLTVLHHHHHH
notes: the appendix prints the entry with HHHHHH and then *VD at its end
B1: the binding result in test [1] is “binds”.

B2: CAIX LH × SEQ ID NO. 170 (bispecific antibody)
chain: DIVMTQSQRFMSTTVGDRVSITCKASQNVVSAVAWYQQKPGQSPKLLIYSASNRYTGVPDRFTGSGSGTDFTLTISNMQSEDLADFFCQQYSNYPWTFGGGTKLEIKGGGGSGGGGSGGGGSDVKLVESGGGLVKLGGSLKLSCAASGFTFSNYYMSWVRQTPEKRLELVAAINSDGGITYYLDTVKGRFTISRDNAKNTLYLQMSSLKSEDTALFYCARHRSGYFSMDYWGQGTSVTVSSSGGGGSEVQLVESGGGLVQPGGSLKLSCAASGFTFNTYAMNWVRQAPGKGLEWVARIRSKYNNYATYYADSVKDRFTISRDDSKNTAYLQMNNLKTEDTAVYYCVRHGNFGNSYVSWFAYWGQGTLVTVSSGGGGSGGGGSGGGGSQTVVTQEPSLTVSPGGTVTLTCRSSTGAVTTSNYANWVQQKPGQAPRGLIGGTNKRAPGTPARFSGSLLGGKAALTLSGVQPEDEAEYYCALWYSNLWVFGGGTKLTVLHHHHHH
notes: as for B1
On to B2, for which, in test [2], the binding result was “binds”.

B3: CAIX HL × SEQ ID NO. 194 (bispecific antibody)
chain: DVKLVESGGGLVKLGGSLKLSCAASGFTFSNYYMSWVRQTPEKRLELVAAINSDGGITYYLDTVKGRFTISRDNAKNTLYLQMSSLKSEDTALFYCARHRSGYFSMDYWGQGTSVTVSSGGGGSGGGGSGGGGSDIVMTQSQRFMSTTVGDRVSITCKASQNVVSAVAWYQQKPGQSPKLLIYSASNRYTGVPDRFTGSGSGTDFTLTISNMQSEDLADFFCQQYSNYPWTFGGGTKLEIKSGGGGSQTVVTQEPSLTVSPGGTVTLTCRSSTGAVTTSNYANWVQQKPGQAPRGLIGGTNKRAPGTPARFSGSLLGGKAALTLSGVQPEDEAEYYCALWYSNLWVFGGGTKLTVLGGGGSGGGGSGGGGSEVQLVESGGGLVQPGGSLKLSCAASGFTFNTYAMNWVRQAPGKGLEWVARIRSKYNNYATYYADSVKDRFTISRDDSKNTAYLQMNNLKTEDTAVYYCVRHGNFGNSYVSWFAYWGQGTLVTVSSHHHHHH
notes: as for B1
Regarding B3, the binding result in test [3] is given as “binds”.

B4: 5-10LH×SEQ ID NO. 16 bispecific single chain antibody (bispecific antibody)
chain: ELVMTQSPSSLTVTAGEKVTMSCKSSQSLLNSGNQKNYLTWYQQKPGQPPKLLIYWASTRESGVPDRFTGSGSGTDFTLTISSVQAEDLAVYYCQNDYSYPLTFGAGTKLEIKGGGGSGGGGSGGGGSEVQLLEQSGAELVRPGTSVKISCKASGYAFTNYWLGWVKQRPGHGLEWIGDIFPGSGNIHYNEKFKGKATLTADKSSSTAYMQLSSLTFEDSAVYFCARLRNWDEPMDYWGQGTTVTVSSGGGGSQVVLTQSPAIMSAFPGEKVTMTCSASSSVSYMNWYQQKSGTSPKRWIYDSSKLASGVPARFSGSGSGTSYSLTISSMETEDAATYYCQQWSRNPPTFGGGTKLQITGGGGSGGGGSGGGGSQVQLQQSGAELARPGASVKMSCKASGYTFTRSTMHWVKQRPGQGLEWIGYINPSSAYTNYNQKFKDKATLTADKSSSTAYMQLSSLTSEDSAVYYCASPQVHYDYNGFPYWGQGTLVTVSAHHHHHH
For B4, the binding result in test [4] is recorded as “binds”.

B5: anti EpCAM antibody 2G8 (antibody, V domains shown)
VH: EVQLQQSGAELVRSGASVKLSCTASGFNIKDYYLHWVKQRPEQGLEWIAWIDLENGDIKYAPKFQGKATITADTSSNTAYLQLSSLTSEDTAVYYCNPYYYGSNYDYAMDYWGQGTSVTVSS
VL: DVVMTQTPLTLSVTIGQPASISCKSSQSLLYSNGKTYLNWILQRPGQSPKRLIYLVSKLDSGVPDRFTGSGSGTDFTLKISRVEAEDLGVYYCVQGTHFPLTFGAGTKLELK
notes: mouse hybridoma supernatant; also called 2G8 hybridoma
In the case of B5, the binding result in test [5] is given as “binds”.

The values are drawn from patent publication US20090252683A1 (Amgen, published 2009).
